From the supplement of paper PMC10126150
± gives the standard deviation of the averaged measurements.

Tested on: ATP
Assay: switch fluorescence ratio, 500 uM ATP over buffer (Cy3 cluster intensity, sum of 5 cycles each) (fold (ratio)); higher = stronger signal-on switching upon ATP binding; sequences stand for … in TCGTCGGCAGCGTCAGATGTGTATAAGAGACAGTTTTTTTTTTTTTTTTTTTTTTTTT…TC
Conditions: aptamer strand: ATP DNA aptamer (quencher-CACCTGGGGGAGTATTGCGGAGGAAGG + anchor), 100 nM annealed; ATP concentration: 500 uM
Outline: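 Imaging in selection buffer was followed by imaging after 15 min with 500 uM ATP at 22 °C, for Cy3-labelled switching-strand clusters annealed to 100 nM quencher-labelled ATP aptamer on a modified Illumina MiSeq flow-cell. Five of these buffer/ATP cycles ran, separated by NaOH stripping and re-annealing. The fluorescence ratio per cluster is summed target-cycle over summed buffer-cycle Cy3 intensity, averaged per switch-domain sequence; clusters outside 100-1000 RFU were removed.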
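Also: ATP exposure 15 min at 22 °C before imaging.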

Sequence | switch fluorescence ratio
ATTCAACGGG | 1.04 ± 0.013
ATTCAAGGTT | 0.973 ± 0.024
ATTCACCGGA | 1.031 ± 0.0044
ATTCACTCGG | 1.38 ± 0.48
ATTCAGTCAT | 0.9901 ± 0.0021
ATTCATCATT | 1.003 ± 0.0043
ATTCCCGGTT | 1.03 ± 0.022
ATTCCGCCGA | 1.48 ± 0.08
ATTCCGGCGG | 0.976 ± 0.015
ATTCCTAGGG | 1.048 ± 0.0022
ATTCCTCAGC | 2.39 ± 0.49
ATTCCTGGGG | 1.05 ± 0.012
ATTCCTTGGT | 1.03 ± 0.022
ATTCGGGTGT | 1.151 ± 0.0081
ATTCGGTTTT | 0.97 ± 0.013
ATTCGTAGGG | 1.01 ± 0.012
ATTCGTCGTC | 0.983 ± 0.077
ATTCGTTTTA | 0.975 ± 0.013
ATTCGTTTTT | 1 ± 0.021
ATTCTCACGT | 1.06 ± 0.021
ATTCTCCGGG | 1.18 ± 0.065
ATTCTGATTG | 1.02 ± 0.033
ATTCTGGGTT | 0.987 ± 0.032
ATTCTGTAAT | 1.01 ± 0.017
ATTCTTCTCA | 1.02 ± 0.028

Sequence | switch fluorescence ratio
ATTCTTGGGT | 1 ± 0.075
ATTCTTTGGC | 1.04 ± 0.097
ATTGAAAAAG | 1.01 ± 0.025
ATTGAAAAAT | 0.983 ± 0.012
ATTGAAACGA | 1.08 ± 0.039
ATTGAACCGG | 1.04 ± 0.012
ATTGAAGATG | 0.971 ± 0.025
ATTGACATGT | 1.03 ± 0.037
ATTGACGGCA | 1.02 ± 0.032
ATTGACGTAT | 1.07 ± 0.13
ATTGACTCTT | 1.003 ± 0.0074
ATTGAGGATG | 1.07 ± 0.17
ATTGAGTCTG | 1.02 ± 0.047
ATTGAGTGGC | 0.928 ± 0.026
ATTGAGTGTG | 0.979 ± 0.022
ATTGATTTCT | 1.012 ± 0.006
ATTGCAGATC | 1.05 ± 0.058
ATTGCATGAG | 1.004 ± 0.0014
ATTGCGAATT | 1.02 ± 0.022
ATTGCGCCCG | 1.032 ± 0.0088
ATTGCGGGTA | 0.992 ± 0.042
ATTGCTGTTT | 1.037 ± 0.0019
ATTGGACAAT | 1.02 ± 0.032
ATTGGAGGAT | 0.96195 ± 0.0005
ATTGGAGGCT | 0.971 ± 0.075

Sequence | switch fluorescence ratio
ATTGGAGGGG | 1.008 ± 0.0041
ATTGGATAAT | 0.9967 ± 0.0091
ATTGGCGTAT | 0.987 ± 0.026
ATTGGCTACT | 0.987 ± 0.013
ATTGGCTGGA | 0.96 ± 0.076
ATTGGCTGTT | 0.997 ± 0.052
ATTGGGACAG | 0.994 ± 0.031
ATTGGGATGA | 0.976 ± 0.025
ATTGGGCAGG | 1.04 ± 0.017
ATTGGGCTGC | 0.977 ± 0.01
ATTGGGGCGT | 0.977 ± 0.016
ATTGGGGTTT | 1 ± 0.019
ATTGGGTAT | 0.988 ± 0.021
ATTGGGTCGT | 0.992 ± 0.021
ATTGGTGAGG | 0.988 ± 0.032
ATTGGTTAGG | 1.01 ± 0.028
ATTGGTTTCT | 1.04 ± 0.074
ATTGTAATTG | 0.993 ± 0.012
ATTGTAGTGT | 1.01 ± 0.025
ATTGTATGGG | 0.9744 ± 0.0071
ATTGTCTCTA | 0.999 ± 0.032
ATTGTGATTG | 0.997 ± 0.038
ATTGTGTACT | 1 ± 0.031
ATTGTTAAGC | 1.02 ± 0.075
ATTGTTACGT | 0.998 ± 0.012

Sequence | switch fluorescence ratio
ATTGTTCAAA | 1 ± 0.015
ATTGTTGTTT | 0.981 ± 0.019
ATTTAAAACC | 1.06 ± 0.015
ATTTAAAAGT | 0.991 ± 0.037
ATTTAAATAG | 0.993 ± 0.035
ATTTAACGGT | 1.03 ± 0.022
ATTTAAGTT | 1.0014 ± 0.00081
ATTTAATTTT | 1.02 ± 0.019
ATTTAGACGT | 0.974 ± 0.026
ATTTAGGGGG | 0.966 ± 0.02
ATTTAGTGAC | 1.02 ± 0.051
ATTTAGTGGT | 1 ± 0.028
ATTTATATAT | 1 ± 0.05
ATTTATTTGC | 1.01 ± 0.022
ATTTCGACAC | 1.0254 ± 0.001
ATTTCGCCCG | 1.07 ± 0.037
ATTTCGGCAC | 0.9959 ± 0.0091
ATTTCGTGGG | 0.978 ± 0.023
ATTTCTCAGG | 1.07 ± 0.017
ATTTCTGTTT | 1 ± 0.015
ATTTGAACAG | 0.978 ± 0.015
ATTTGAATTA | 1.01 ± 0.034
ATTTGCAATT | 1.03 ± 0.034
ATTTGCAGCA | 1.02 ± 0.014
ATTTGCCTGT | 0.982 ± 0.033

Sequence | switch fluorescence ratio
ATTTGCGGTT | 0.9949 ± 0.0022
ATTTGCTTTA | 1.02 ± 0.012
ATTTGGAGGG | 0.969 ± 0.0034
ATTTGGAGTC | 1 ± 0.018
ATTTGGGAGT | 1 ± 0.025
ATTTGGTGGG | 0.97 ± 0.05
ATTTGTATCC | 0.994 ± 0.021
ATTTGTATTC | 1.03 ± 0.031
ATTTGTCAAG | 0.999 ± 0.016
ATTTGTCAGA | 0.98 ± 0.015
ATTTGTCCAA | 0.993 ± 0.028
ATTTGTGATG | 0.994 ± 0.047
ATTTGTTATT | 1.01 ± 0.024
ATTTTAACGT | 1.01 ± 0.046
ATTTTAAGTT | 0.99 ± 0.034
ATTTTAATAG | 0.9909 ± 0.0056
ATTTTACAGC | 1.03 ± 0.0074
ATTTTACCAT | 1.04 ± 0.075
ATTTTACGAA | 1.028 ± 0.0065
ATTTTAGATC | 1.01 ± 0.034
ATTTTAGCTG | 1.01 ± 0.046
ATTTTAGGGT | 0.989 ± 0.022
ATTTTAGTGC | 1.01 ± 0.053
ATTTTATATT | 1.02 ± 0.032
ATTTTATTTT | 1.01 ± 0.029

Sequence | switch fluorescence ratio
ATTTTCGGCT | 0.99 ± 0.0036
ATTTTCTCCG | 1.43 ± 0.63
ATTTTCTTGC | 1 ± 0.038
ATTTTGAACA | 1.019 ± 0.0062
ATTTTGAAGA | 1.01 ± 0.032
ATTTTGAATC | 0.973 ± 0.013
ATTTTGAGAC | 0.995 ± 0.026
ATTTTGAGGA | 1.02 ± 0.015
ATTTTGAGGC | 1.02 ± 0.035
ATTTTGCCGT | 1.02 ± 0.027
ATTTTGGAGC | 0.999 ± 0.058
ATTTTGGCAG | 0.99 ± 0.049
ATTTTGGGGA | 1.005 ± 0.01
ATTTTGGGGT | 1 ± 0.014
ATTTTGGTTT | 0.989 ± 0.025
ATTTTGTCGG | 0.968 ± 0.018
ATTTTGTTTG | 0.994 ± 0.012
ATTTTTACCT | 1.08 ± 0.19
ATTTTTATGA | 0.967 ± 0.015
ATTTTTCTTA | 1.007 ± 0.0045
ATTTTTGATC | 1.02 ± 0.032
ATTTTTGGCA | 0.995 ± 0.033
ATTTTTGGGA | 0.981 ± 0.028
ATTTTTGTAG | 1.01 ± 0.017
ATTTTTTACG | 1.02 ± 0.031

Sequence | switch fluorescence ratio
ATTTTTTCGT | 1.04 ± 0.036
ATTTTTTGAG | 1 ± 0.034
ATTTTTTGCC | 0.962 ± 0.052
ATTTTTTTGC | 1.03 ± 0.029
CAAAAAACGG | 1.13 ± 0.23
CAAAAAAGGG | 1.02 ± 0.021
CAAAAATGGC | 1.02 ± 0.011
CAAAACCTGA | 1.2 ± 0.15
CAAAACGGTT | 1.02 ± 0.048
CAAAAGGGAG | 1.036 ± 0.01
CAAAAGGGGT | 1.004 ± 0.0063
CAAAAGTAGA | 0.991 ± 0.036
CAAAAGTTGA | 1.01 ± 0.053
CAAAATGTTC | 1.021 ± 0.0086
CAAACGAGGT | 0.994 ± 0.026
CAAACGCCGA | 1.103 ± 0.0045
CAAAGAGCTT | 1 ± 0.028
CAAAGATAGT | 0.996 ± 0.037
CAAAGGAGGC | 1.01 ± 0.048
CAAAGGGCAA | 1.11 ± 0.038
CAAAGGGGCG | 0.975 ± 0.045
CAAAGGGTTA | 0.9906 ± 0.0086
CAAAGTTATA | 1.0129 ± 0.00033
CAAATACGAT | 1.05 ± 0.04
CAAATCAGGA | 1 ± 0.038

Sequence | switch fluorescence ratio
CAAATGCATA | 1.08 ± 0.017
CAAATGGGAC | 1.09 ± 0.061
CAAATGGTGG | 1.02 ± 0.0022
CAAATGTTAT | 1.02 ± 0.0088
CAAATTTAAG | 0.982 ± 0.028
CAAATTTGCT | 0.967 ± 0.022
CAACAACATT | 1.07 ± 0.12
CAACATCTCG | 0.993 ± 0.019
CAACATTTTC | 1.03 ± 0.054
CAACGAGGGG | 1.02 ± 0.039
CAACGCGCGG | 0.995 ± 0.045
CAACGGGTTT | 0.997 ± 0.051
CAACTCTTTT | 0.998 ± 0.038
CAACTGCAGC | 1.26 ± 0.049
CAACTGGGGC | 1.06 ± 0.022
CAACTGTTTT | 1.04 ± 0.1
CAAGAATCTG | 0.9606 ± 0.0091
CAAGAGAATT | 0.9939 ± 0.005
CAAGAGGGCT | 1.024 ± 0.0043
CAAGAGGGGT | 1.01 ± 0.016
CAAGATAGGG | 1.01 ± 0.026
CAAGATGCTC | 1.43 ± 0.03
CAAGATGGGG | 0.95 ± 0.023
CAAGATTCGG | 0.986 ± 0.018
CAAGCATTTT | 1.011 ± 0.0016
